Test results as given in the nanobody polyreactivity screen of Harvey et al. (2022).

Experiment: yeast display, Sf9 membrane polyspecificity reagent, FACS + sequencing; frameworks hold sequencing errors
How it was run: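 Polyreactivity labels are assigned by the sorting gate from which each nanobody was recovered. The gates were low and high (top ~1%), set on anti-HA fluorescence for expression and streptavidin fluorescence for reagent binding. Before sorting, galactose-induced (36–48 hours) yeast display cells were stained for 1 hour at 4 °C with 10% biotinylated, detergent-solubilized Sf9 membrane reagent.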

Sequence | polyreactivity (PSR sort gate)
QVQLVESGGGLVQAGGRLRLRCAASGIIFTAYVMGWYRQAPGKERELVADITSGDGSTYYADSVKGRFTISRDNAKNTVYLQMNSLKPEDTAVYYCAADYGQLVFDSYRREYDYWGQGTQVTVSS | low polyreactivity
QVQLVESGGGLVQAGGRLRLSCAAAGRTFVLYVMGWYRQAPRKEREFVADINAGGGSTYYADSVKGRFTMSRDNAKNTVYLQMNSLKAEDTAVYYCAASYVRGWKHSLDDYWGQGTQVTVAS | low polyreactivity
QVQLVESGGGLVQAGGRLRLSCAACGIIFLLYAMGWYRQAPGKERELVAAITNGGRTNYADSVQGRFTISRDNAKNTVYLQMNSRKPEDTALYYCNAVLSVPDYTLFDYWGQGTQVTVSS | low polyreactivity
QVQLVESGGGLVQAGGRLRLSCAASGFIFAKYAMGWYRQAPGKERELVAAITSSGVSTYYADSVKGRFTISRDNAKNTVYLQMNSLKPADTAVYYCNARERYSYWGQGTQVTVSS | high polyreactivity
QVQLVESGGGLVQAGGRLRLSCAASGFIFTDNGMGWYRQAPGKERELVAAINSDGSTYYADSVKGRFTISRDNAKNTVYLQMNSLKPEATAVYYCAVDGSITEIYLPGYGYGYWGQGTQVTVSS | low polyreactivity
QVQLVESGGGLVQAGGRLRLSCAASGFPFAVYAMGWYRQAPGKERELVATITSAGSTYYADSVKGRFTISRDTAKNTVYLQRNSLKPEDNEVYYCAAAGTYYRGDYGYWGQGTQVTVSS | low polyreactivity
QVQLVESGGGLVQAGGRLRLSCAASGFTFNSYVMGWYRQAPGKERELVAAITRSGDRTYYADSVKGRFTISRDNAKNTVYLQMNSLKPEDTAVYYCAATWSINYYGWYYYWGQGTQVTVSS | high polyreactivity
QVQLVESGGGLVQAGGRLRLSCAASGFTFRAFTMGWYRQAPGKERELVAAITYSGGRTYYADSVKGRFTISRDNAKNTVYLQMNSLKPEDTAVYYCAKRGWALSEYYYWGQGTQVTVSS | high polyreactivity
QVQLVESGGGLVQAGGRLRLSCAASGFTFRYYAMGWSRQAPGKERELVAGISYRGTSTYYADSVKGRFTISRDNAKNTVYLQMNSLKPEDTAVYYCADEVRYDRHDYWGQGTQVTVSS | high polyreactivity
QVQLVESGGGLVQAGGRLRLSCAASGFTFYYKAMGWYRQAPGKEWELVASITWSGGRTYYADSVKGRFTISRDNAKNTVYFQMNSLKPEDTAVYYCNAGYCIGLVAYGYWGQGTQVTVSS | low polyreactivity
QVQLVESGGGLVQAGGRLRLSCAASGIIFTVYAMGWYRQAPGKERELVAAITSSGGRTYYADSVKGRFTISRDNAKNTVYLHMNSLKPEDTAVYYCAARLPGYVRKYDYWGQGTQVTVSS | high polyreactivity
QVQLVESGGGLVQAGGRLRLSCAASGITFDLYAMGWYSQAPGKERELVAAISISSTSTYYADSVKGRFTISRDYEKNTVYLQMNSLKPEDTAVYYCNAVPSSKTFWFDYWGQGTQVTVSS | low polyreactivity
QVQLVESGGGLVQAGGRLRLSCAASGITFTFNAMGWYRQAPGKERELVAAITWSGGSTIYADSVKGRFTFSRDNAKNTVYLQMNSQKPEDTAVYNCARDTELYVRWLDYWGQGSQVTVSS | low polyreactivity
QVQLVESGGGLVQAGGRLRLSCAASGITFYVYAMGWYRQAPGKVREFVAAISTRDGTTYADSVKGRFTISRDNAKNTVYLQMNRLKPEDTAVYFCAAAYYYDGQQGDFDYWGQGTQVTVSS | low polyreactivity
QVQLVESGGGLVQAGGRLRLSCAASGLIFVWYAMGWYRQAPGKERELVAAISTSGGSTYYADSVKGRFTISRDNAKNTVYLQMNSLKPEDTAVYYCAAARRWWPQGYYWGQGTQVTVSS | high polyreactivity
QVQLVESGGGLVQAGGRLRLSCAASGLIILRYTMGWYRQAPGKERELVAVITSGGRTYYADSVKGRFTISRDNAKNTVYLQMNSLKPEDTAVYYCAASVGLRTSFTGGGYWGQGTQVTVSS | high polyreactivity
QVQLVESGGGLVQAGGRLRLSCAASGLNFYLYAMGWYTQAPGKERELVATITSAGRTNSADTVKGRFTISRDNAKNTVYLERNSLKPEYTAVYYCIRDVRFVGPSGFDYWGQGTEVTVSS | high polyreactivity
QVQLVESGGGLVQAGGRLRLSCAASGNIFKRYTMGWYRQAPGKERELVAAISGGDSTNYADSVKGRFTISRDNANNTFYLQMNSLKPEDTAVYYCAAGGLTLWHGYILGYWGQGTQVTVSS | low polyreactivity
QVQLVESGGGLVQAGGRLRLSCAASGRIFDANVMGWYRQAPGKERELVAAISSGGRTKYADSVKGRFTISRDNAKNNVYLQMNSLKPEDTAVYYCAKKHSPLYDYWGQGTQVTVSS | low polyreactivity
QVQLVESGGGLVQAGGRLRLSCAASGRIFFRNTMGWYRQEPGKERQLVAAISGSGGSKYYADSVKGRFTISRDNAKNTVYLQMNSLKPEDTAVYYCAKRWLYPISYDYWGQGTQVTVSS | high polyreactivity
QVQLVESGGGLVQAGGRLRLSCAASGRIFGVYAMGWYRQAPGKEREFVASITRGGGRTYYADSVKGRFTISRDNAKNTVYLQMNSLKPEDTAVYYCNAVVNSYPYYYWGQGTQVTVSS | high polyreactivity
QVQLVESGGGLVQAGGRLRLSCAASGRIFKSYAMGWYRQAPGKERELVATISISGGSTYYADSVKGRFTISRDNAKNTVYLQMNSLKPEDTAVYYCASDRYGLGDYDYWGQGTQVTVSS | low polyreactivity
QVQLVESGGGLVQAGGRLRLSCAASGRIFLPDGMGWYIQAAGKERELVATITIGGSSTYADSVKGRFTISRDNAKNTVNLQMNSLKPEHTAVYYCAVRRWVYYLHGYDYWGQGTQETVSS | low polyreactivity
QVQLVESGGGLVQAGGRLRLSCAASGRIFRRYAMGWYRQAPGKERELVAAITSSGTSTHYADSVKGRFTISRDNAKNTVYLQMNSLKPEDTAVYYCAARYSTYPWYNYCGQGTQVTVSS | high polyreactivity
QVQLVESGGGLVQAGGRLRLSCAASGRIFRYNAMGWYRQAPGKERELVASITSAGSTNYADSVKGRFTISRDNAKITVYLLMNSLKPEDTEVYYCNKRRAYGYYLFDYWGQGTQVTVSS | high polyreactivity
QVQLVESGGGLVQAGGRLRLSCAASGRIFSTYAMGWYRQAPGKQRQLVAAINKSGGSTYYADSVKGRFTISRDTAKNTVYLQMNSLKPEDTAVYYCAADQSYPKRLPSFEYWGQGTQVTVSS | low polyreactivity
QVQLVESGGGLVQAGGRLRLSCAASGRIFTYYVMGWYRQAPGKERELVASISGSGGRTYYADSVKGRFTISRDNAKNTVYLQMNSLKPEDTAVYYCATRLYKRTRTITYGYWGQGTQVTVSS | high polyreactivity
QVQLVESGGGLVQAGGRLRLSCAASGRIFYNYAMGWYRQAPGKERELVAAISGSGGSTYYADSVKGRFTISRDNAKNTVYLQMNSLKPEDTAVYYCSTSGPQYYSRNFDYWGQGTQVTVSS | low polyreactivity
QVQLVESGGGLVQAGGRLRLSCAASGRIFYNYAMGWYRQAPGKERELVASINFSGTRTYYADSVKGRFTISRDYAKNHVYLQMNSLKPEDTAVYYCAARQAHGYYYWGQGTQVTVSS | high polyreactivity
QVQLVESGGGLVQAGGRLRLSCAASGRIGPNVMGWYRQPPGKERELVAAISRRGGSTYYADSVKGRFTISRDNAKNTVYLQMNSLKPEDTAVYYCAKDLYTLAVKGGDYWGQGTQVTVSS | high polyreactivity
